Results on two molecules are retold here after article PMC7722741, “The bacterial multidrug resistance regulator BmrR distorts promoter DNA to activate transcription”.

For the data set, the target named is BmrR;RNAP-sigmaA holoenzyme (Bacillus subtilis;Bacillus subtilis, UniProt P39075;P20429;P37870;P37871;O35011;O31718;P06224 …, |). As to the kind of experiment: EMSA; TPP 500 uM; heparin challenge; stable open complex stated in peer review file; EMSA: 10 mM HEPES pH 7.5, 100 mM KCl, 5 mM MgCl2, 3 mM DTT, 1 h room temperature, 0.75 uM RNAP, 0.5 uM DNA, 0 or 2 uM BmrR, 0 or 500 uM TPP, heparin 100 ug/ml when indicated; 5% TBE gel. Particulars: protein: recombinant;native; tags: ;; chain copies: 2;2;1;1;1;1;1. Background: Mobility shift assays separate free from complexed probe on a gel.

B1: Pbmr-2 (mixed)
DNA 1: TTTAGAAAGATTTTGCAAATCCGTTGACTCTCCCCTAGGAGGAGGTCTTATAATGGGAGCTGTCACGGATGC
DNA 2: GCATCCGTGACAGCTCCCATTATAAGACCTCCTCCTAGGGGAGAGTCAACGGATTTGCAAAATCTTTCTAAA
Take B1: the binding result was “binds”.

B2: Pbmr-wt1 (dsDNA)
DNA 1: TTTAGAAAGATTTTGCAAATCCGTTGACTCTCCCCTAGGAGGAGGTCTTACAGTATAAGGGATACACACTTG
DNA 2: CAAGTGTGTATCCCTTATACTGTAAGACCTCCTCCTAGGGGAGAGTCAACGGATTTGCAAAATCTTTCTAAA
As for B2, the binding result is listed as “binds”.
